The values below come from US20100243450, “NON-EQUILIBRIUM CAPILLARY ELECTROPHORESIS OF EQUILIBRIUM MIXTURES (NECEEM)-BASED METHODS FOR DRUG AND DIAGNOSTIC DEVELOPMENT” (published 2010).

Data set [1] deals with T1, SSB (single-stranded DNA-binding protein) (UniProt P0AGE0 P0AGE0:2-178). Nature of the data set: NECEEM run buffer 25 mM tetraborate pH 9.4 with 100 nM SSB; fully double-stranded, not bound. The conditions noted are these: chain copies: 4; label: 5'-fluorescein on DNA-1; duplex without single-stranded overhang.
T1 sequence (P0AGE0 2-178, one chain of several): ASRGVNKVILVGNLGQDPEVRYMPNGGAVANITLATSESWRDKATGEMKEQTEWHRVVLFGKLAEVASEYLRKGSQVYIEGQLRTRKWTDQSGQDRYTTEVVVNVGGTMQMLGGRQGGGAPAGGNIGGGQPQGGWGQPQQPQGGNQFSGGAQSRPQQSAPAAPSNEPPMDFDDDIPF
Data set [2] addresses T1, SSB (single-stranded DNA-binding …). Nature of the data set: NECEEM run buffer 25 mM tetraborate pH 9.4 with 100 nM SSB; binds via single-stranded overhang. The conditions noted are these: chain copies: 4; label: 5'-fluorescein on DNA-1; duplex with 10-nt single-stranded overhang.
Data set [3] shares this target. As to the kind of experiment: NECEEM; 25 mM tetraborate pH 9.4, incubated at room temperature; koff 3.3e-2 s-1, kon 1.2e5 M-1 s-1. The conditions noted are these: chain copies: 4; label: 5'-fluorescein. The procedure: SSB and a fluorescently-labeled 15-mer ssDNA oligonucleotide, 5′-fluorescein-[…] ([…]) were used in this example (Berezovski and Krylov J. Amer. Chem. Soc. 2002, 124, 13674). NECEEM separation of protein-DNA complexes was performed using a laboratory-built CE instrument with fluorescence detector described in detail elsewhere (Wu and Dovichi J. Chromatogr. 1989, 480, 141). A 488 nm line of an Argon-ion laser was utilized to excite the fluorescence of the DNA. Uncoated fused silica capillaries of 40 cm×20 μm I.D.×150 μm O.D. were used. The electrophoresis was run with a positive electrode at the injection end biased at +24 kV. The run buffer for NECEEM was 25.0 mM tetraborate at pH 9.4. The samples were injected into the capillary by a pressure pulse of 1 s×9.1 kPa; the length of corresponding sample plug was 0.93 mm as was calculated using the Poiseulle equation (Krylov et al. Anal. Chem. 2000, 72, 872). The capillary was rinsed with the run buffer solution for 2 minutes prior to each run. At the end of each run, the capillary was rinsed with 100 mM NaOH for 2 minutes, followed by a rinse with deionized water for 2 minutes.
Equilibrium mixtures of SSB, fDNA and SSB•fDNA complex were prepared by mixing solutions of 16 μM SSB and 205 nM fDNA in the run buffer at a desired volume ratio and incubating them at room temperature to reach equilibrium prior to the analysis. […]

B1: DNA-1/DNA-3/DNA-2 hybrid (dsDNA)
DNA 1: GCGGAGCGTGGCAGG
DNA 2: CCTGCCACGCTCCGCTCTAAAAATAA
DNA 3: TTATTTTTAG
For B1, in data set [1], the binding result is on record as “no binding”.

B2: DNA-1/DNA-3 hybrid (mixed)
DNA 1: GCGGAGCGTGGCAGG
DNA 2: CCTGCCACGCTCCGCTCTAAAAATAA
With B2, in data set [2], the binding result was “binds”.

B3: fDNA 15-mer (DNA-1) (ssDNA)
DNA: GCGGAGCGTGGCAGG
Broadly, the Kd is the equilibrium constant for the complex coming apart. Low values mean higher affinity, high ones lower affinity. B3: the Kd in data set [3] was 280 nM.
